# Data as given in publication PMC5554155.
# Assay: immunoblot, N-terminal Flag vs C-terminal epitopes, ldlD cells
# Details: glycan lost; control: WT Ser49-β1AR, ldlD cells with Gal/GalNAc
row,Substance,other: proteolytic processing
1,β1-adrenergic receptor (β1AR): N15A,no change
2,β1-adrenergic receptor (β1AR): ldlD cells without Gal/GalNAc,increases
